As usually defined, the Tm is the temperature at the midpoint of the melting transition.

B1: Guanyl-specific ribonuclease Sa, P05798 (parent)
chain: DVSGTVCLSALPPEATDTLNLIASDGPFPYSQDGVVFQNRESVLPTQSYGYYHEYTVITPGARTRGTRRIITGEATQEDYYTGDHYATFSLIDQTC

This data set covers variants of B1. The following applies: Kitasatospora aureofaciens, pH 7, CD, MOPS 30 mM, structure 1RGG, whole UniProt chain shown.

Take DVSGTVCLSALPPEATDTLNLIASKGPFPYPQDGVVFQNREGVLPTQPYGYYHEYTVITPGARTRGTRRIITGKAPGEDYYTGDHYATFSLIDQTC [D25K E74K S31P S42G S48P T76P Q77G]: under “25 °C, GdnHCl”, the “ddG of mutation (higher = less stable)” value was -3.9 kcal/mol, the denaturant m value was determined as 2.52 kcal/mol/M, the “denaturant midpoint (higher = more stable)” value (from here on “denaturant midpoint”) was determined as 4.44 M and the unfolding free energy stood at 11.2 kcal/mol. In addition, for the setting “60 °C, Thermal”, the “ddG of mutation (higher = less stable)” value was -5.3 kcal/mol and the “heat capacity change of unfolding” value stood at 1.68 kcal/mol/K. Where the note is “Thermal”, the Tm stood at 66.6 °C; the “change of melting temperature, mutant - wild type (higher = more stable)” value (from here on “change of melting temperature, mutant”) is 17.3 °C; the “heat capacity change of unfolding” value was 1.68 kcal/mol/K; the “unfolding enthalpy (van 't Hoff)” value is 105 kcal/mol.
Consider DVSGTVCLSALPPEATDTLNLIASKGPFPYPQDGVVFQNREGVLPTQPYGYYHEYTVITPGARTRGTRRIITGKAPGEDYYTGDHYATFSLDDQTC [D25K E74K S31P S42G S48P T76P Q77G I92D], for which, for the setting “25 °C, GdnHCl”, the “ddG of mutation (higher = less stable)” value was 5.1 kcal/mol, the denaturant m value was found to be 2.67 kcal/mol/M, the “denaturant midpoint” value was 0.83 M and the unfolding free energy stood at 2.2 kcal/mol. Where the note is “60 °C, Thermal”, the “ddG of mutation (higher = less stable)” value was determined as 9.6 kcal/mol and the “heat capacity change of unfolding” value was determined as 1.41 kcal/mol/K. Moreover, under “Thermal”, the Tm worked out at 34 °C; the “change of melting temperature, mutant” value is -32.6 °C; the “heat capacity change of unfolding” value stood at 1.41 kcal/mol/K; the “unfolding enthalpy (van 't Hoff)” value came out at 73 kcal/mol.
In the case of DVSGTVCLSALPPEATDTLNLIASKGPFPYSQDGVVFQNRESVLPTQSYGYYHEYTVITPGARTRGTRRIITGKATQEDYYTGDHYATFSLIDQTC [D25K E74K], under “25 °C, GdnHCl”, the “ddG of mutation (higher = less stable)” value came out at 0.2 kcal/mol, the denaturant m value turned out to be 2.61 kcal/mol/M, the “denaturant midpoint” value turned out to be 2.7 M and the unfolding free energy is 7.1 kcal/mol. In addition, for the setting “25 °C, Urea”, the “ddG of mutation (higher = less stable)” value is -0.8 kcal/mol, the denaturant m value came out at 1.02 kcal/mol/M, the “denaturant midpoint” value was 6.51 M and the unfolding free energy stood at 6.6 kcal/mol. Moreover, under “60 °C, Thermal”, the “ddG of mutation (higher = less stable)” value was -0.8 kcal/mol. Moreover, for the setting “Thermal”, the Tm was determined as 51.5 °C; the “change of melting temperature, mutant” value is 2.2 °C; the “unfolding enthalpy (van 't Hoff)” value stood at 92 kcal/mol.
For DVSGTVCLSALPPEATDTLNLIASKGPFPYPQDGVVFQNREGVLPTQPYGYYHEYTVITPGARTRGTRRIITGKAPGEFAYTGDHYATFSLIDQTC [D25K E74K S31P S42G S48P T76P Q77G D79F Y80A], for the setting “25 °C, GdnHCl”, the “ddG of mutation (higher = less stable)” value is -0.1 kcal/mol, the denaturant m value was 2.69 kcal/mol/M, the “denaturant midpoint” value came out at 2.74 M and the unfolding free energy was found to be 7.4 kcal/mol. Besides, under “60 °C, Thermal”, the “ddG of mutation (higher = less stable)” value turned out to be 4.8 kcal/mol and the “heat capacity change of unfolding” value was determined as 1.29 kcal/mol/K. Further, where the note is “Thermal”, the midpoint of thermal melting (Tm) is 58 °C; the “change of melting temperature, mutant” value was -19.2 °C; the “heat capacity change of unfolding” value worked out at 1.29 kcal/mol/K; the “unfolding enthalpy (van 't Hoff)” value turned out to be 87 kcal/mol.
As for DVSGTVCLSALPPEATDTLNLIASKGPFPYPQDGVVFQNREGVLPTQPYGYYHEYTVITPGARTRGTRRIITGKAPGEAYYTGDHYATFSLIDQTC [D25K E74K S31P S42G S48P T76P Q77G D79A], under “25 °C, GdnHCl”, the “ddG of mutation (higher = less stable)” value is -4.9 kcal/mol, the denaturant m value came to 2.4 kcal/mol/M, the “denaturant midpoint” value was found to be 5.05 M and the unfolding free energy worked out at 12.1 kcal/mol. Moreover, for the setting “60 °C, Thermal”, the “ddG of mutation (higher = less stable)” value is -2.2 kcal/mol and the “heat capacity change of unfolding” value came to 1.15 kcal/mol/K. Besides, under “Thermal”, the Tm was found to be 75.3 °C; the “change of melting temperature, mutant” value was 8.7 °C; the “heat capacity change of unfolding” value turned out to be 1.15 kcal/mol/K; the “unfolding enthalpy (van 't Hoff)” value is 102 kcal/mol.
DVSGTVCLSALPPEATDTLNLIASKGPFPYPQDGVVFQNREGVLPTQPYGYYHEYTVITPGARTRGTRRIITGKAPGEFYYTGDHYATFSLIDQTC [D25K E74K S31P S42G S48P T76P Q77G D79F]: where the note is “25 °C, GdnHCl”, the “ddG of mutation (higher = less stable)” value is -6.3 kcal/mol, the denaturant m value worked out at 2.51 kcal/mol/M, the “denaturant midpoint” value was 5.4 M and the unfolding free energy turned out to be 13.6 kcal/mol. Also, where the note is “60 °C, Thermal”, the “ddG of mutation (higher = less stable)” value is -7.7 kcal/mol and the “heat capacity change of unfolding” value is 1.07 kcal/mol/K.
As for DVSGTVCLSALPPEATDTLNLIASKGPFPYPQDGVVFQNREGVLPTQPYGYYHEYTVITPGARTRGTRRIITGKAPGEFYYTGDHYATFSLDDQTC [D25K E74K S31P S42G S48P T76P Q77G D79F I92D], for the setting “25 °C, GdnHCl”, the “ddG of mutation (higher = less stable)” value worked out at 2.2 kcal/mol, the denaturant m value turned out to be 2.73 kcal/mol/M, the “denaturant midpoint” value worked out at 2.01 M and the unfolding free energy was found to be 5.5 kcal/mol. Further, under “60 °C, Thermal”, the “ddG of mutation (higher = less stable)” value was determined as 7.1 kcal/mol and the “heat capacity change of unfolding” value was 1.41 kcal/mol/K. Also, where the note is “Thermal”, the Tm turned out to be 50.2 °C; the “change of melting temperature, mutant” value is -26.9 °C; the “heat capacity change of unfolding” value came to 1.41 kcal/mol/K; the “unfolding enthalpy (van 't Hoff)” value turned out to be 84 kcal/mol.
On to DVSGTVCLSALPPEATDTLNLIASKGPFPYPQDGVVFQNREGVLPTQPYGYYHEYTVITPGARTRGTRRIITGKAPGEFYYTGDHYATFSLADQTC [D25K E74K S31P S42G S48P T76P Q77G D79F I92A], for which, under “25 °C, GdnHCl”, the “ddG of mutation (higher = less stable)” value was -1.9 kcal/mol, the denaturant m value amounted to 2.78 kcal/mol/M, the “denaturant midpoint” value amounted to 3.22 M and the unfolding free energy is 9.2 kcal/mol. For the setting “60 °C, Thermal”, the “ddG of mutation (higher = less stable)” value is 3.2 kcal/mol and the “heat capacity change of unfolding” value turned out to be 1.33 kcal/mol/K. Also, under “Thermal”, the Tm was found to be 63.9 °C; the “change of melting temperature, mutant” value was -13.3 °C; the “heat capacity change of unfolding” value was 1.33 kcal/mol/K; the “unfolding enthalpy (van 't Hoff)” value is 102 kcal/mol.
For the variant DVSGTVCLSALPPEATDTLNLIASKGPFPYPQDGVVFQNREGVLPTQPYGYYHEYTVITPGARTRGTRRDITGKAPGEFYYTGDHYATFSLIDQTC [D25K E74K S31P S42G S48P T76P Q77G D79F I70D], for the setting “60 °C, Thermal”, the “ddG of mutation (higher = less stable)” value is 9.5 kcal/mol and the “heat capacity change of unfolding” value was found to be 1.08 kcal/mol/K. In addition, under “Thermal”, the Tm was determined as 41.5 °C; the “change of melting temperature, mutant” value was -35.6 °C; the “heat capacity change of unfolding” value was 1.08 kcal/mol/K; the “unfolding enthalpy (van 't Hoff)” value is 78 kcal/mol.

The values above are taken from FireProtDB (doi:10.1002/pro.381).
